This note sets out measurements from publication PMC3215948 (The Journal of Cell Biology, 2006).

Assay in all cases: pull-down
The target in test [1] is T1, His6-Vps45p (S. cerevisiae, UniProt P38932 1-577).
T1 sequence (looked up): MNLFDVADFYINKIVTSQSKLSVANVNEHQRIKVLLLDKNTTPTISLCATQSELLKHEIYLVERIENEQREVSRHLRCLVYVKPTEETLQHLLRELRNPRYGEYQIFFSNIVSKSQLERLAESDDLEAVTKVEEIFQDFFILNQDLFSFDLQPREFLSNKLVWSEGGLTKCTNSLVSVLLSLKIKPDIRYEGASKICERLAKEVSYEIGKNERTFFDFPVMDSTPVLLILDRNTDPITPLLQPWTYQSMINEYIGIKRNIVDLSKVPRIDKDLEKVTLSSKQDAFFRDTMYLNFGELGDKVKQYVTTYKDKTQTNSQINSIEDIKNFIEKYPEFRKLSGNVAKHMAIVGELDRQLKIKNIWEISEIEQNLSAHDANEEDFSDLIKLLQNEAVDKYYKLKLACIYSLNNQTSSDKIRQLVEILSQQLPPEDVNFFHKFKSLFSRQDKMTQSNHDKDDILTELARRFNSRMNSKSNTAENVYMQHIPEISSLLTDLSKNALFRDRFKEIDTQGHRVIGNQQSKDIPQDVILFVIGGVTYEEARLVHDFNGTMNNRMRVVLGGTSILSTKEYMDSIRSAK

A further test addresses T2, His6-Vps45p_(L117R) (S. cerevisiae, UniProt P38932 1-577, L117R).
T2 sequence (looked up): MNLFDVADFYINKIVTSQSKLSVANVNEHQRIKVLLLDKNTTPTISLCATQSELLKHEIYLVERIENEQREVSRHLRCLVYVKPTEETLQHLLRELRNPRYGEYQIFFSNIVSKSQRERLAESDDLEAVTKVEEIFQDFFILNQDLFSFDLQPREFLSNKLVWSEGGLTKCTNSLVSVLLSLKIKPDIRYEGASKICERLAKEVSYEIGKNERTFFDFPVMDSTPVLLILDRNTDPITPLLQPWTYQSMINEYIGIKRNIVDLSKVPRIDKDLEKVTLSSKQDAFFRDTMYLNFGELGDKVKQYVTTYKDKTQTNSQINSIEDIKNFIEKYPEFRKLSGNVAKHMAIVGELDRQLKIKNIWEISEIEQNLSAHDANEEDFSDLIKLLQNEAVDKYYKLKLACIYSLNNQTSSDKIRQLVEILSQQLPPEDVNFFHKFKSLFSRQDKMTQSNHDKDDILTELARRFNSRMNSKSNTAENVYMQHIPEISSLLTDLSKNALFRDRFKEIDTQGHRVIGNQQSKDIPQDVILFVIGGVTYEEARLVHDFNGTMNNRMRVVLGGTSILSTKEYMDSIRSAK

The target in test [2] is T1, His6-Vps45p. The source holds these as a separate data set.

Like-named read-outs stand apart in the source and are kept apart here.

B1: Snc2p_(Δ2–19)-PrA (domain or fragment, S. cerevisiae, UniProt P33328 1-88, looked up)
chain: MANPNSQNKTAALRQEIDDTVGIMRDNINKVAERGERLTSIEDKADNLAISAQGFKRGANRVRKQMWWKD
As to B1, the binding result with His6-Vps45p [1] is recorded as “binds”.

B2: Snc2p-PrA (cytosolic domain of Snc2p fused to protein A) (domain or fragment, S. cerevisiae, UniProt P33328 1-88, looked up)
chain: MSSSVPYDPYVPPEESNSGANPNSQNKTAALRQEIDDTVGIMRDNINKVAERGERLTSIEDKADNLAISAQGFKRGANRVRKQMWWKD
On to B2, for which the binding result with His6-Vps45p_(L117R) is “binds”.

B3: Snc2p_(cyto) (cytosolic domain of Snc2p, PrA tag removed by thrombin) (domain or fragment, S. cerevisiae, UniProt P33328 1-88, looked up)
chain: MSSSVPYDPYVPPEESNSGANPNSQNKTAALRQEIDDTVGIMRDNINKVAERGERLTSIEDKADNLAISAQGFKRGANRVRKQMWWKD
For B3, in the test with His6-Vps45p [2], the binding result is “binds”.
